Reference: publication PMC3621463 (Nature Communications, 2012)

Target: HDM2 (used for surface plasmon resonance and the competitive binding assay) (UniProt Q00987 1-491)
Test: SPR

Sequence of HDM2 (used for surface plasmon resonance and the competitive binding assay) (Q00987 whole entry): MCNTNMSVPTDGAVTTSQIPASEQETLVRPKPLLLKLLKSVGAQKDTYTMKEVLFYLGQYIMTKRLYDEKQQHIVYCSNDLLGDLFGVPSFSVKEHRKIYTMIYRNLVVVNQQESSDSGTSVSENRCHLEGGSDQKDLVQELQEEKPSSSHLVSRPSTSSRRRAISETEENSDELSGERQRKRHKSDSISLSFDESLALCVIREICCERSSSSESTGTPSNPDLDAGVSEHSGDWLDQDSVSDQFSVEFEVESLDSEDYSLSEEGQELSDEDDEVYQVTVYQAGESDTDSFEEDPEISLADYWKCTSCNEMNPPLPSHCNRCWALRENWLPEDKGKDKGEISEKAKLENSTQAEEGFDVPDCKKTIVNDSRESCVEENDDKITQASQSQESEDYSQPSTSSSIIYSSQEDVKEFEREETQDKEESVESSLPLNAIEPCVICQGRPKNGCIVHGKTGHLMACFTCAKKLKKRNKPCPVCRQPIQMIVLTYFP

## LWKLLPEDDVLSPLPSQAM (isoaspartate at 29 and 30) [p53 peptide (amino acids 22-40) N29,30IsoD]
  Kd: 694 µM
